{"source": "patent US20160244529A1", "about": "(ROTTAPHARM BIOTECH S R L, published 2016)", "binders": {"B1": {"name": "CRB0089_IgG4 (antibody, V domains shown)", "VH": "QVQLQESGPGLVKPSQTLSLTCAISGDSVSSNSAAWNWIRQSPSRGLEWLGRTFHRSRWYNEYPVSVRSRITINPDTSNNQFTLQLNSVTPDDTAVYYCARAPVAGLTFDIWGQGTMVTVSS", "VL": "QTVVTQEPSVSGAPGQRVTISCTGSSSIIGAGYEVHWYQHLPGTAPKLLIYDSINRPSGVPDRFSGSKSGTSASLAITGLQAEDEADYYCQSSAIFGGGTKLTVL", "notes": "Whole human IgG4 made in CHO-S cells; also called mAb CRB0089_IgG4; anti-TrkA CRB0089_IgG4"}, "B2": {"name": "anti-TrkA scFv CRB0072 (scFv)", "scFv": "DIQMTQSPISLSATVGDRVTITCRASQSIGRYLNWYQQKPGKAPKLLIYGASSLESGVPSRFSGSGSGTVFTLTISGLQPEDFATYCCQQSHSTAWTFGQGTKVEIKSGGSTSGSGKPGSGEGSSGTEVQLVETGGGLVQPGSSLRLSCATSGFTFINYGVHWVRQPPGKGLEWVASIWYEGSNEKYADSVKGRFTISRDNSRYTLHLQLNSLRAEDTADYYCVRDRGTGDYRNSRFYYGMDVWGQGTTVTVSS", "notes": "From hSPLINT_09 selection"}, "B3": {"name": "anti-TrkA scFv CRB0088 (scFv)", "scFv": "QPVLTQSPPASASLGASVKLTCTLSSGHSSYAIAWHQQQPEKGPRYLMKVNSDGSHNKGDGIPDRFSGSRSGAERYLTISSLHSEDEADYYCQTWGAGGVVFGGGTKLTVLSGGSTSGSGKPGSGEGSSGTEVQLLESGGGLVQPGGSLRLSCAASGFTFSDHYMDWVRQAPGKGLEWVGRIRNKANSYTTEYAASVKGRFTISRDDSKKTLYLQMTSLKTDDTALYYCARDLGASDAFDLWGQGTMVTVSS", "notes": "From hSPLINT_09 selection"}}, "key": {"[1]": {"target": "T1, mouse Ig1,2 TrkA (recombinant D4-D5 domain of murine TrkA receptor) (mouse, UniProt Q3UFB7 193-413)", "T1 construct": "also called mTrkA Ig1,2", "T1 sequence (Q3UFB7 other isoform, or with tags, fused parts or gaps limits assumed)": "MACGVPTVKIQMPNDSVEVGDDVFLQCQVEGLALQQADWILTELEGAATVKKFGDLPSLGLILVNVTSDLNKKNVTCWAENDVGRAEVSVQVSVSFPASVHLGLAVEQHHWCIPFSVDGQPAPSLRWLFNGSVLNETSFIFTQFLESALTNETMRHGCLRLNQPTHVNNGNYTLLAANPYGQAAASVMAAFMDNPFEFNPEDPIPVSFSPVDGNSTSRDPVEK", "experiment": "SPR (Biacore X-100) kinetic analysis"}, "[2]": {"target": "T2, human Ig1,2 TrkA (recombinant D4-D5 domain of human TrkA receptor) (human, UniProt P04629 191-392)", "T2 construct": "also called hTrkA Ig1,2; TrkA Ig1,2", "T2 chain": "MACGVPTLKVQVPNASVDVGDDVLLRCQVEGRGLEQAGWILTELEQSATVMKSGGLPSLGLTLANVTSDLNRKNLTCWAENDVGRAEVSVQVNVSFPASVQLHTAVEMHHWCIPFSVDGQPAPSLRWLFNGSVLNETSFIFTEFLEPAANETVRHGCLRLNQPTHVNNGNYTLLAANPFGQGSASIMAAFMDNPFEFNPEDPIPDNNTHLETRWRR", "experiment": "SPR (Biacore X-100) kinetic analysis"}, "[3]": {"target": "T3, human TrkA receptor (native, on TF-1 cells) (human, UniProt P04629 33-796)", "T3 sequence (P04629 33-796 limits assumed)": "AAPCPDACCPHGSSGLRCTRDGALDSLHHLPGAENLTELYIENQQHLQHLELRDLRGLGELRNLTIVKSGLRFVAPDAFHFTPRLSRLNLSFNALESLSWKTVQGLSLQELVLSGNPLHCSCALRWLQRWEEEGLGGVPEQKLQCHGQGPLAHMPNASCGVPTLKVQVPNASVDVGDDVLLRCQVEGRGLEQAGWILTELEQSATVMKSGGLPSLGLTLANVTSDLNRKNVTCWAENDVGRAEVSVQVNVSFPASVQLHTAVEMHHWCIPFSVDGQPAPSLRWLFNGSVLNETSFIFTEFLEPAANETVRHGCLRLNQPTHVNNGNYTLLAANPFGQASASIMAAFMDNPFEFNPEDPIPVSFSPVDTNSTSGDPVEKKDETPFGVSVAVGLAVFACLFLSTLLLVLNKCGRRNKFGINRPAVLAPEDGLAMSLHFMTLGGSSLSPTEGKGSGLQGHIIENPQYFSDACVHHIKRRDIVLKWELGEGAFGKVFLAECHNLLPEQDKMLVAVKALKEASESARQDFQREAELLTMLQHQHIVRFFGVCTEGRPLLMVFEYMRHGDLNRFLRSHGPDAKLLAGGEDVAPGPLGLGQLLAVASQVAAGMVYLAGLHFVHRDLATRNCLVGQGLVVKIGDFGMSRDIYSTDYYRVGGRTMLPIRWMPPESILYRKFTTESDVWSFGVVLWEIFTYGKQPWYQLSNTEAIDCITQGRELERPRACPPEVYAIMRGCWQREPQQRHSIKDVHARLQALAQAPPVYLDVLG", "experiment": "cell-based or functional assay"}, "[4]": {"target": "T2, human Ig1,2 TrkA (recombinant D4-D5 …)", "experiment": "SPR (Biacore X-100); scFv immobilised on CM5 chip, human Ig1,2 TrkA injected", "procedure": "(§1) The antibodies were also shown to be specific for hTrkA and mTrkA by relative binding to the BIACore sensor chips coated with the appropriate antigen. Antibodies were immobilized by ammine coupling to Biosensor CM5 sensorchips (Pharmacia) according to the manufacturers instructions. Anti-TrkA scFv proteins were diluted at 20-50 μg/ml in suitable pre-concentration buffer (at least 2 pH unit below the pI of the scFv in order to get a net positive charge), chosen among the Acetate buffers. The scFvs were immobilized at 100 RU to get a low density immobilization. As binder, the recombinant protein consisting of D4-D5 domain of human and murine TrkA receptor (hTrkA Ig1,2 and mTrkA Ig1,2 respectively) were injected over the immobilized scFv with a contact time of 60 seconds and with a dissociation time of 400 seconds and the assay workflow placed 5 serial dilutions of the TrkA Ig1,2 (starting in the micromolar range and diluting 1:2 each time). The regeneration condition were mild (contact time 30 seconds, 10 mM Glycine pH2). On the basis of the resulting sensorgrams, the concentrations of TrkA Ig1,2 were adjusted to optimize, contact time, dissociation time and regeneration. Data were analysed by Bioevaluation Software (see results on Table II and Table III). The quality of the data fitting were checked by the value of Chi² and of the U-value.\n(§2) We have carried out surface plasmon resonance (SPR) analyses to determine the binding kinetics of a panel of isolated anti-TrkA scFvs (SEQ ID NOs: 1, 2, 3, 4, 5, 6, 7, 8, 9, 10, 11, 12, 13, 14, 15 and 16). The scFvs were immobilized on a CM5 chip followed by injections at various concentration of human and murine Ig 1,2 TrkA (SEQ ID NO: 78) and mouse Ig1,2 TrkA (SEQ ID NO: 79)."}, "[5]": {"target": "T1, mouse Ig1,2 TrkA (recombinant D4-D5 …)", "experiment": "SPR (Biacore X-100); scFv immobilised on CM5 chip, mouse Ig1,2 TrkA injected", "procedure": "as §1, §2"}, "[6]": {"target": "T3, human TrkA receptor (native, on TF-1 …)", "experiment": "chip-based flow cytometry (Agilent Bioanalyzer 2100) on TF-1 cells expressing human TrkA; scFv at 5 µg/ml per paragraph 159", "procedure": "FIG. 5. FACS analysis performed with Bioanalyzer 2100. A cell fluid chip-based fluorescent cytometric assay that runs on Bioanalyzer 2100 (Agilent) for fast characterization of small population cell phenotypes was assessed. The assay determines the expression of specific cell surface markers. In this experiment, the specificity of scFvs on TF-1 cell line expressing human TrkA receptor was assessed. Six samples can be analyzed on each chip in one automated process. Results were in good agreement with conventional flow cytometry in quantisation.\n10⁶ cells/sample=tot: 6×10⁶ cells are first centrifuged at 350 g for 5 min at room temperature (RT) and wash with 12 ml of Staining Buffer (SB) at RT. The pellet was resuspended in 3 ml of SB at 4° C. and aliquot 0.5 ml of suspension in 1.5 ml conical tubes. Cells were centrifuged again at 350 g for 5 min at 4° C. and the pellet was resuspended in 1 ml HBSS at 4° C. 125 μl 16% p-formaldehyde (final conc 1.7%) was added into each tube and then the sample was incubated for 10 min at 4° C. on tube rotator. After 10 minutes, 75 μl of 10% detergent solution-Tween 20 (final conc 0.6%) was added and the samples were then incubated for 10 min at 4° C. on tube rotator. Samples were then washed once with FACS Buffer (0.8 ml/sample) at 4° C. and then centrifuged at 350 g for 5 min at 4° C. Cells were resuspended with 80 μl/sample of FACS Buffer. 20 μl of a 5× primary antibody solution were added (final concentration of scFvs is 5 μg/ml). After incubation for 1 hour at 4° C. on tube rotator samples were washed with FACS Buffer (0.5 ml/sample) at 4° C. and then centrifuged 5 min at 350 g at 4° C. Cells were resuspended with 80 μl/sample of FACS Buffer. 20 μl of a 5× secondary antibody solution were added. Final concentration of mouse anti-V5 antibody is 0.20 μg/ml. The samples were incubated for 1 hour at 4° C. on tube rotator. After incubation for 1 hour at 4° C. on tube rotator samples were washed with FACS Buffer (0.5 ml/sample) at 4° C. and then centrifuged 5 min at 350 g at 4° C. Cells were resuspended with 80 μl/sample of FACS Buffer. 20 μl of a 5× tertiary antibody solution were added. Final concentration of anti-mouse IgG-Cy5 is 4 μg/ml (1:250 diluted). The samples were incubated for 1 hour at 4° C. on tube rotator."}, "human p75 immunoadhesin": {"target": "T4, human p75 immunoadhesin (human; Camelus dromedarius, UniProt P08138 29-250)", "T4 construct": "extracellular domain; also called hp75-Fc; p75NTR immunoadhesin; not shown: Fc portion (immunoglobulin heavy chain constant region) of IgG2a camel antibody (Camelus dromedarius)", "T4 sequence (looked up)": "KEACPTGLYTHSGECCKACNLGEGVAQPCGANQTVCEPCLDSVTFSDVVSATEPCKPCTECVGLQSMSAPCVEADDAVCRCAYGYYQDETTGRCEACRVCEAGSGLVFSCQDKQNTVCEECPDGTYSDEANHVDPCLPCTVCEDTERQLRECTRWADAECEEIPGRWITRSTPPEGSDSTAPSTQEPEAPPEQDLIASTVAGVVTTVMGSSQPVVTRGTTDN", "experiment": "specificity ELISA, antigens coated at 2 µg/mL, scFv at 50 ug/mL (upper panel) and 5 ug/mL (lower panel), OD 450 nm", "procedure": "(§3) FIG. 3. Specificity ELISA of isolated anti-TrkA scFvs versus human TrkA immunoadhesin (hTrkA-Fc), human TrkB immunoadhesins (hTrkB-Fc), human TrkC immunoadhesins (hTrkC-Fc) and human p75 immunoadhesins (hp75-Fc). Human antigens were coated at 2 μg/mL. Anti-TrkA scFvs were used at 50 μg/mL (upper panel) and/or 5 μg/mL (lower panel). The mean absorbance at 450 nm of the experiments performed in duplicate wells is shown with SD indicated by the bars."}, "human TrkC immunoadhesin": {"target": "T5, human TrkC immunoadhesin (human; Camelus dromedarius, UniProt Q16288 32-429)", "T5 construct": "extracellular domain; also called hTrkC-Fc; TrkC immunoadhesins; not shown: Fc portion (immunoglobulin heavy chain constant region) of IgG2a camel antibody (Camelus dromedarius)", "experiment": "specificity ELISA, antigens coated at 2 µg/mL, scFv at 50 ug/mL (upper panel) and 5 ug/mL (lower panel), OD 450 nm", "procedure": "as §3"}, "human TrkB immunoadhesin": {"target": "T6, human TrkB immunoadhesin (human; Camelus dromedarius, UniProt Q16620 32-430)", "T6 construct": "extracellular domain; also called hTrkB-Fc; TrkB immunoadhesins; not shown: Fc portion (immunoglobulin heavy chain constant region) of IgG2a camel antibody (Camelus dromedarius)", "T6 sequence (Q16620 32-430)": "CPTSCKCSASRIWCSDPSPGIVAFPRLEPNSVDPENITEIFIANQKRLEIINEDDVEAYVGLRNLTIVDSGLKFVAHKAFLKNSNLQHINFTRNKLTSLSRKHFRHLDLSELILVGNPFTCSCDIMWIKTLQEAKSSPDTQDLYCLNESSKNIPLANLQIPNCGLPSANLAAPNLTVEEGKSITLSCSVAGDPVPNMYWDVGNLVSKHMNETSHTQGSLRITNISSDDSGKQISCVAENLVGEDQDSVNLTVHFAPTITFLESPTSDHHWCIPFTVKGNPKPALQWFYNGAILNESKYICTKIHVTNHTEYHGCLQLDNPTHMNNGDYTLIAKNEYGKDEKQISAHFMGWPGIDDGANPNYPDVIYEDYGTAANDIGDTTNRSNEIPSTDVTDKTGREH", "experiment": "specificity ELISA, antigens coated at 2 µg/mL, scFv at 50 ug/mL (upper panel) and 5 ug/mL (lower panel), OD 450 nm", "procedure": "as §3"}}, "note": "“And” between values parts separate entries of the source, which are not always exact repeats. Equal values may be shown once.", "data": [{"binder": "B1", "values": [{"measurement": "Kd", "setting": "[1]", "result": 27.6, "unit": "nM"}, {"measurement": "koff", "setting": "[1]", "result": 0.000136, "unit": "s⁻¹"}, {"measurement": "kon", "setting": "[1]", "result": 4950, "unit": "M⁻¹ s⁻¹"}, {"measurement": "Kd", "setting": "[2]", "result": 16.1, "unit": "nM"}, {"measurement": "koff", "setting": "[2]", "result": 0.000103, "unit": "s⁻¹"}, {"measurement": "kon", "setting": "[2]", "result": 6420, "unit": "M⁻¹ s⁻¹"}, {"measurement": "IC50 of inhibition of NGF-mediated TF1 cell proliferation (MTT assay)", "setting": "[3]", "result": "~43 nM and ~40 nM"}]}, {"binder": "B2", "values": [{"measurement": "Kd", "setting": "[4]", "result": 2.04, "unit": "nM"}, {"measurement": "koff", "setting": "[4]", "result": "7.48e-06", "unit": "s⁻¹"}, {"measurement": "kon", "setting": "[4]", "result": 3680, "unit": "M⁻¹ s⁻¹"}, {"measurement": "Kd", "setting": "[5]", "result": 17, "unit": "nM"}, {"measurement": "koff", "setting": "[5]", "result": "4.93e-05", "unit": "s⁻¹"}, {"measurement": "kon", "setting": "[5]", "result": 2910, "unit": "M⁻¹ s⁻¹"}, {"measurement": "binding result", "setting": "[6]", "result": "binds"}, {"measurement": "binding result", "setting": "human p75 immunoadhesin", "result": "no binding (tested: 50 ug/mL)"}, {"measurement": "binding result", "setting": "human TrkC immunoadhesin", "result": "no binding (tested: 50 ug/mL)"}, {"measurement": "binding result", "setting": "human TrkB immunoadhesin", "result": "no binding (tested: 50 ug/mL)"}]}, {"binder": "B3", "values": [{"measurement": "Kd", "setting": "[4]", "result": 1.16, "unit": "nM"}, {"measurement": "koff", "setting": "[4]", "result": "3.2e-06", "unit": "s⁻¹"}, {"measurement": "kon", "setting": "[4]", "result": 2760, "unit": "M⁻¹ s⁻¹"}, {"measurement": "Kd", "setting": "[5]", "result": 38.5, "unit": "nM"}, {"measurement": "koff", "setting": "[5]", "result": 0.000131, "unit": "s⁻¹"}, {"measurement": "kon", "setting": "[5]", "result": 3410, "unit": "M⁻¹ s⁻¹"}, {"measurement": "binding result", "setting": "[6]", "result": "binds"}, {"measurement": "binding result", "setting": "human p75 immunoadhesin", "result": "no binding (tested: 50 ug/mL)"}, {"measurement": "binding result", "setting": "human TrkC immunoadhesin", "result": "no binding (tested: 50 ug/mL)"}, {"measurement": "binding result", "setting": "human TrkB immunoadhesin", "result": "no binding (tested: 50 ug/mL)"}]}]}
